Source: US20230391837A1 (ROWAN UNIVERSITY, published 2023)

Molecular target: T1, human angiotensin converting enzyme 2 (ACE2) receptor on HSC-2 oral squamous cell carcinoma cells (human, UniProt Q9BYF1 18-805)
T1 construct: whole, on cells
Test: live cell confocal microscopy of HSC-2 cells with Alexa 595 labeled MASL (legend prints 1.4 pM) and Alexa 647 labeled ACE2 monoclonal antibody. This is colocalisation, not a direct binding assay.

B1: Maackia amurensis seed lectin (MASL) (other)
chain: SDELSFTINNFVPNEADLLFQGEASVSSTGVLQLTRVENGQPQQYSVGRALYAAPVRIWDNTTGSVASFSTSFTFVVKAPNPTITSDGLAFFLAPPDSQIPSGRVSKYLGLFNNSNSDSSNQIVAVEFDTYFGHSYDPWDPNYRHIGIDVNGIESIKTVQWDWINGGVAFATITYLAPNKTLIASLVYPSNQTSFIVAASVDLKEILPEWVRVGFSAATGYPTQVETHDVLSWSFTSTLEANCDAATEN
notes: also called Maacki amurensis seed lectin
- binding result: binds
